Columns and labels:
Test in all cases: IEDB peptide-MHC binding, purified MHC/competitive/radioactivity; filed as Kd, often an IC50 or EC50 that approximates it; ≥ and ≤ were set here for values at or beyond the usual limits of such assays
HLA-A*03:01 = biological target: HLA-A*03:01
HLA-A*11:01 = biological target: HLA-A*11:01
HLA-A*31:01 = biological target: HLA-A*31:01
HLA-A*33:01 = biological target: HLA-A*33:01
HLA-A*68:01 = biological target: HLA-A*68:01
[1] = source organism: Vaccinia virus WR
[2] = source organism: Dengue virus 4 Philippines/H241/1956
[3] = source organism: Mammarenavirus lassaense
[4] = source organism: Dengue virus 1 Brazil/97-11/1997
[5] = source organism: Dengue virus 3 Martinique/1243/1999
[6] = source organism: Lassa virus Josiah
[7] = source organism: Mammarenavirus juninense
[8] = source organism: SARS coronavirus Tor2
[9] = source organism: Mammarenavirus brazilense
[10] = source organism: Mammarenavirus guanaritoense
[11] = source organism: Dengue virus 2 Peru/IQT2913/1996

Question: Which results are given for DSPLTLLIK?
Answer: Kd (HLA-A*03:01; [1]): ≥ 78000 nM; Kd (HLA-A*11:01; [1]): 6250 nM; Kd (HLA-A*31:01; [1]): ≥ 55600 nM; Kd (HLA-A*33:01; [1]): ≥ 77.7 µM; Kd (HLA-A*68:01; [1]): 1320 nM

Question: With DTSEVHWNYK as the sequence, how does the Kd (HLA-A*68:01; [2]) read?
Answer: 6.73 nM

Question: Which Kd (HLA-A*03:01; [1]) does the source give for LSSIKSKSRR here?
Answer: ≥ 32100 nM

Question: And the Kd (HLA-A*11:01; [1])?
Answer: 2030 nM

Question: And the Kd (HLA-A*31:01; [1])?
Answer: 644 nM

Question: What about the Kd (HLA-A*33:01; [1]) of the same sequence?
Answer: 16.5 µM

Question: And the Kd (HLA-A*68:01; [1])?
Answer: 163 nM

Question: For TVKTNLYMK, which Kd (HLA-A*03:01; [1]) is on record?
Answer: 3680 nM

Question: What about the Kd (HLA-A*11:01; [1]) of the same sequence?
Answer: 16.2 nM

Question: What about the Kd (HLA-A*31:01; [1]) of the same sequence?
Answer: 81.7 nM

Question: And the Kd (HLA-A*33:01; [1])?
Answer: 6.32 µM

Question: What about the Kd (HLA-A*68:01; [1]) of the same sequence?
Answer: 104 nM

Question: Which Kd (HLA-A*03:01; [1]) does the source give for VMANNVKKK here?
Answer: 31.8 nM

Question: What about the Kd (HLA-A*11:01; [1]) of the same sequence?
Answer: 215 nM

Question: And the Kd (HLA-A*31:01; [1])?
Answer: 3910 nM

Question: And the Kd (HLA-A*33:01; [1])?
Answer: ≥ 75.2 µM

Question: And the Kd (HLA-A*68:01; [1])?
Answer: 6170 nM

Question: For AFDISVNASK, which Kd (HLA-A*03:01; [1]) is on record?
Answer: 593 nM

Question: And the Kd (HLA-A*11:01; [1])?
Answer: 1230 nM

Question: And the Kd (HLA-A*31:01; [1])?
Answer: 1660 nM

Question: What about the Kd (HLA-A*33:01; [1]) of the same sequence?
Answer: ≥ 32.3 µM

Question: And the Kd (HLA-A*68:01; [1])?
Answer: 1040 nM

Question: With CTDPSERVFK as the sequence, how does the Kd (HLA-A*03:01; [1]) read?
Answer: 543 nM

Question: And the Kd (HLA-A*11:01; [1])?
Answer: 10 nM

Question: And the Kd (HLA-A*31:01; [1])?
Answer: 2930 nM

Question: And the Kd (HLA-A*33:01; [1])?
Answer: ≥ 54.5 µM

Question: And the Kd (HLA-A*68:01; [1])?
Answer: 56 nM

Question: How did the Kd (HLA-A*03:01; [1]) turn out when SAVFKDSFLR was run?
Answer: 664 nM

Question: And the Kd (HLA-A*11:01; [1])?
Answer: 45.9 nM

Question: And the Kd (HLA-A*31:01; [1])?
Answer: 23.9 nM

Question: And the Kd (HLA-A*33:01; [1])?
Answer: 0.372 µM

Question: What about the Kd (HLA-A*68:01; [1]) of the same sequence?
Answer: 18.2 nM

Question: Which results are given for QCWRSFLNK?
Answer: Kd (HLA-A*03:01; [3]): 567 nM; Kd (HLA-A*11:01; [3]): 4950 nM; Kd (HLA-A*31:01; [3]): 880 nM; Kd (HLA-A*33:01; [3]): 0.743 µM; Kd (HLA-A*68:01; [3]): 13600 nM

Question: With FFRKLVLTNK as the sequence, how does the Kd (HLA-A*03:01; [1]) read?
Answer: 1020 nM

Question: What about the Kd (HLA-A*11:01; [1]) of the same sequence?
Answer: 390 nM

Question: And the Kd (HLA-A*31:01; [1])?
Answer: 200 nM

Question: What about the Kd (HLA-A*33:01; [1]) of the same sequence?
Answer: 0.243 µM

Question: And the Kd (HLA-A*68:01; [1])?
Answer: 3730 nM

Question: For DLISYGGGWR, which Kd (HLA-A*33:01; [4]) is on record?
Answer: 1.39 µM

Question: LSARNKLFK was tested. Which Kd (HLA-A*03:01; [1]) did it give?
Answer: 2.21 nM

Question: And the Kd (HLA-A*11:01; [1])?
Answer: 0.532 nM

Question: And the Kd (HLA-A*31:01; [1])?
Answer: 168 nM

Question: What about the Kd (HLA-A*33:01; [1]) of the same sequence?
Answer: 16.1 µM

Question: And the Kd (HLA-A*68:01; [1])?
Answer: 14.9 nM

Question: Which Kd (HLA-A*31:01; [5]) does the source give for RTLGRNKKPR here?
Answer: 8.39 nM

Question: What does the source list for TSFYLISIFL?
Answer: Kd (HLA-A*03:01; [6]): 8080 nM; Kd (HLA-A*33:01; [6]): ≥ 31.1 µM

Question: How did the Kd (HLA-A*03:01; [7]) turn out when KYIHCFRKPH was run?
Answer: ≥ 70000 nM

Question: And the Kd (HLA-A*11:01; [7])?
Answer: ≥ 69700 nM

Question: And the Kd (HLA-A*31:01; [7])?
Answer: 12.7 nM

Question: And the Kd (HLA-A*33:01; [7])?
Answer: ≥ 46.1 µM

Question: What about the Kd (HLA-A*68:01; [7]) of the same sequence?
Answer: ≥ 70100 nM

Question: Which results are given for PSAEDNYLAK?
Answer: Kd (HLA-A*03:01; [1]): ≥ 32200 nM; Kd (HLA-A*11:01; [1]): 8.64 nM; Kd (HLA-A*31:01; [1]): ≥ 20300 nM; Kd (HLA-A*33:01; [1]): 4.12 µM; Kd (HLA-A*68:01; [1]): 5710 nM

Question: SSMVNGVVK was tested. Which Kd (HLA-A*11:01; source organism: Dengue virus 1 Singapore/S275/1990) did it give?
Answer: 73.4 nM

Question: For LLDSYFVVK, which Kd (HLA-A*03:01; [8]) is on record?
Answer: 40.3 nM

Question: And the Kd (HLA-A*11:01; [8])?
Answer: 47.2 nM

Question: And the Kd (HLA-A*31:01; [8])?
Answer: 1270 nM

Question: And the Kd (HLA-A*33:01; [8])?
Answer: 12.7 µM

Question: And the Kd (HLA-A*68:01; [8])?
Answer: 2060 nM

Question: For TLDESFLGR, which Kd (HLA-A*03:01; [8]) is on record?
Answer: 1430 nM

Question: And the Kd (HLA-A*11:01; [8])?
Answer: 669 nM

Question: What about the Kd (HLA-A*31:01; [8]) of the same sequence?
Answer: 841 nM

Question: And the Kd (HLA-A*33:01; [8])?
Answer: 1.12 µM

Question: And the Kd (HLA-A*68:01; [8])?
Answer: 947 nM

Question: Which results are given for SAFNDDGIY?
Answer: Kd (HLA-A*03:01; [1]): ≥ 78000 nM; Kd (HLA-A*11:01; [1]): 14000 nM; Kd (HLA-A*31:01; [1]): 9580 nM; Kd (HLA-A*33:01; [1]): ≥ 77.7 µM; Kd (HLA-A*68:01; [1]): 1860 nM

Question: Which Kd (HLA-A*11:01; source organism: Mammarenavirus choriomeningitidis) does the source give for VSFLLLAGR here?
Answer: 17.9 nM

Question: With NFEALEATK as the sequence, how does the Kd (HLA-A*03:01; [1]) read?
Answer: 4210 nM

Question: What about the Kd (HLA-A*11:01; [1]) of the same sequence?
Answer: 84.5 nM

Question: What about the Kd (HLA-A*31:01; [1]) of the same sequence?
Answer: 6740 nM

Question: And the Kd (HLA-A*33:01; [1])?
Answer: 1.06 µM

Question: And the Kd (HLA-A*68:01; [1])?
Answer: 704 nM

Question: Which Kd (HLA-A*03:01; [8]) does the source give for GLVASIKNFK here?
Answer: 630 nM

Question: What about the Kd (HLA-A*11:01; [8]) of the same sequence?
Answer: 1320 nM

Question: And the Kd (HLA-A*31:01; [8])?
Answer: 7560 nM

Question: And the Kd (HLA-A*33:01; [8])?
Answer: ≥ 20.6 µM

Question: And the Kd (HLA-A*68:01; [8])?
Answer: 507 nM

Question: For MVNHSTYYV, which Kd (HLA-A*03:01; [9]) is on record?
Answer: 94.7 nM

Question: What about the Kd (HLA-A*11:01; [9]) of the same sequence?
Answer: 590 nM

Question: And the Kd (HLA-A*31:01; [9])?
Answer: 10.3 nM

Question: What about the Kd (HLA-A*33:01; [9]) of the same sequence?
Answer: 0.81 µM

Question: What about the Kd (HLA-A*68:01; [9]) of the same sequence?
Answer: 94.8 nM

Question: How did the Kd (HLA-A*11:01; [5]) turn out when VSILASSLLR was run?
Answer: 514 nM

Question: What about the Kd (HLA-A*31:01; [5]) of the same sequence?
Answer: 872 nM

Question: And the Kd (HLA-A*33:01; [5])?
Answer: 0.2 µM

Question: And the Kd (HLA-A*68:01; [5])?
Answer: 468 nM

Question: Which Kd (HLA-A*03:01; [1]) does the source give for IAARILSEK here?
Answer: 14.9 nM

Question: And the Kd (HLA-A*11:01; [1])?
Answer: 13.5 nM

Question: And the Kd (HLA-A*31:01; [1])?
Answer: 4550 nM

Question: And the Kd (HLA-A*33:01; [1])?
Answer: 4.87 µM

Question: And the Kd (HLA-A*68:01; [1])?
Answer: 11.8 nM

Question: Which results are given for SQIQLSLLK?
Answer: Kd (HLA-A*03:01; [8]): 892 nM; Kd (HLA-A*11:01; [8]): 29.2 nM; Kd (HLA-A*31:01; [8]): 18000 nM; Kd (HLA-A*33:01; [8]): ≥ 77.7 µM; Kd (HLA-A*68:01; [8]): 6270 nM

Question: What does the source list for QTTVNTLSER?
Answer: Kd (HLA-A*03:01; [1]): 1520 nM; Kd (HLA-A*11:01; [1]): 76.8 nM; Kd (HLA-A*31:01; [1]): 21.7 nM; Kd (HLA-A*33:01; [1]): 0.155 µM; Kd (HLA-A*68:01; [1]): 5.22 nM

Question: How did the Kd (HLA-A*31:01; [5]) turn out when TSEHGGRAYR was run?
Answer: 72.4 nM

Question: For KLTYQNKVVK, which Kd (HLA-A*03:01; [5]) is on record?
Answer: 66.1 nM

Question: Which Kd (HLA-A*31:01; [4]) does the source give for RICTREEFTR here?
Answer: ≥ 70000 nM

Question: Which Kd (HLA-A*03:01; [2]) does the source give for SIPPTAGILK here?
Answer: 216 nM

Question: What about the Kd (HLA-A*11:01; [2]) of the same sequence?
Answer: 16.5 nM

Question: With FTVKLGGVFH as the sequence, how does the Kd (HLA-A*03:01; [10]) read?
Answer: 14800 nM

Question: And the Kd (HLA-A*31:01; [10])?
Answer: 695 nM

Question: What about the Kd (HLA-A*33:01; [10]) of the same sequence?
Answer: 12.5 µM

Question: And the Kd (HLA-A*68:01; [10])?
Answer: 27.4 nM

Question: With FLMSGRGIGK as the sequence, how does the Kd (HLA-A*03:01; [11]) read?
Answer: 4.97 nM

Question: What about the Kd (HLA-A*11:01; [11]) of the same sequence?
Answer: 75.2 nM

Question: With WQLMYFHRR as the sequence, how does the Kd (HLA-A*31:01; [4]) read?
Answer: 4410 nM

Question: What does the source list for RTYSDPLALK?
Answer: Kd (HLA-A*03:01; [5]): 3.61 nM; Kd (HLA-A*11:01; [5]): 36.1 nM; Kd (HLA-A*68:01; [5]): 29.3 nM

Question: Which Kd (HLA-A*03:01; source organism: Dengue virus 2 Jamaica/1409/1983) does the source give for VLKIVRNMEK here?
Answer: 82.8 nM

Question: With FLALGFFLRK as the sequence, how does the Kd (HLA-A*03:01; [5]) read?
Answer: 29.1 nM

Question: Which results are given for ISLGLILLK?
Answer: Kd (HLA-A*03:01; [2]): 31.2 nM; Kd (HLA-A*11:01; [2]): 1.21 nM

Question: Which Kd (HLA-A*03:01; source organism: Homo sapiens) does the source give for ILIKRRQQK here?
Answer: 28.9 nM

Source: the Immune Epitope Database (IEDB)
